Assay results taken from US12616740B2, “Methods of using a GIP/GLP1 co-agonist for therapy” (ELI LILLY AND COMPANY, priority 2018, dated 2026).

Experiments:
Type in all cases: in vivo, human
[1] = tested on: patients with T2DM who have inadequate glycemic control; test: NCT03131687: mean fasting glucose at Week 26; parameters: Mean change from baseline, fasting glucose: unit not given here; conditions: dulaglutide 1.5 mg once weekly, N 46
Procedure: (§1) Clinical Study (NCT03131687) Supporting Maintenance Dose Embodiments A 6-month (26-week) Phase 2 double-blind clinical study is designed to evaluate the safety, efficacy, and PK/PD of 4 dose levels (1 mg, 5 mg, 10 mg and 15 mg respectively) of tirzepatide once weekly by subcutaneous injection compared with dulaglutide 1.5 mg. once weekly (QW) and placebo QW in patients with T2DM who have inadequate glycemic control with diet and exercise with or without a stable dose of metformin. Tirzepatide dose is up-titrated to the maintenance dose using the following weekly dose increments:
(§2) The study also has a 4-week follow up period. In addition to safety and efficacy for treating T2DM, efficacy endpoints include the effect of tirzepatide on HbA1c, FBG, body weight, lipids, and waist circumference compared with placebo and with dulaglutide 1.5 mg. The study also evaluates the effect of tirzepatide on GI tolerability, hypoglycemia, hypersensitivity reactions, and pancreatic safety, as well as the development of treatment-emergent anti-drug antibodies. Model-based dose response analyses are performed to predict potential for significant HbA1c lowering and weight loss in longer studies. Statistical Analyses: Efficacy: The primary efficacy outcome of HbA1c change from baseline to the 26-week endpoint is analyzed using a Bayesian dose-response model. Analyses are performed on the intention to treat population (mITT) analysis set. Supportive analysis of the primary efficacy outcome for the mITT dataset are the model for post-baseline measures (MMRM) with body mass index (BMI) (<30 kg/m^2, ≥30 kg/m^2), metformin use, treatment, visit, and treatment-by-visit interaction as fixed effects, baseline HbA1c as a covariate, and patient as a random effect. The mean weight change from baseline at 12 and 26 weeks, along with the mean change from baseline of HbA1c at 12 weeks, is analyzed using similar dose-response models as the primary analyses. The percentages of patients with ≥5% or ≥10% body weight loss, reaching the HbA1c target of ≤6.5% or ≤7.0% at 26 weeks, or requiring rescue therapy are analyzed using logistic regression with fixed effects of treatment and strata, and baseline as a covariate. The changes from baseline in FBG (fasting blood glucose), SMBG (self-monitored blood glucose) levels, waist circumference, and mean percentage change in lipids from baseline to 12 and 26 weeks are analyzed using a similar MMRM to the one used for the primary analyses. Table Abbreviations: Dula 1.5 mg=dulaglutide 1.5 mg once weekly; LY means tirzepatide, and LY 1 mg=tirzepatide 1 mg once weekly; LY 5 mg=5 mg once weekly; LY 10 mg=escalation dose group tirzepatide once weekly with highest dose of 10 mg; LY 15 mg=escalation dose group of tirzepatide once weekly with highest dose 15 mg; LOCF=last observation-carried-forward; N=number of patients; pbo=placebo; Week 26=mITT on-treatment data at Week 26 excluding data after study drug discontinuation or rescue drug initiation; mITT=modified intent-to-treat; SD=standard deviation. For Table 4, n=number of patients in the population with baseline and post-baseline value at the specified time point. For Table 6, LY10 mg=escalation dose group tirzepatide, once weekly with highest dose of 10 mg; escalation dose: (5 mg weeks 0 and 1), LY15 mg=escalation dose group tirzepatide, once weekly with highest dose of 15 mg; escalation dose: (5 mg weeks 0 and 1; 10 mg weeks 2 to 5); N=number of patients in specified group, m=number of patients who experienced new event during interval, FolUp=follow up, T/Wk=Time range, (week) and %=means percent patients spending at least some time in treatment group who experienced new event during interval. For Table 7, n is the number of patients with events meeting the criteria; N is number of patients in the population; % is percent of patients in treatment group experiencing the event.

[2] = NCT03131687: weight loss at Week 26; conditions: dulaglutide 1.5 mg once weekly
Procedure: as §1, §2

[3] = NCT03131687: nausea, vomiting and diarrhea, new events per interval; conditions: dulaglutide 1.5 mg once weekly, N = 54
Procedure: as §1, §2

[4] = tested on: patients with T2DM who have inadequate glycemic control; test: Phase 2 clinical study NCT03131687 (26 weeks): patients reaching HbA1c target; conditions: dulaglutide 1.5 mg once weekly
Procedure: as §1, §2

[5] = NCT03131687: decrease appetite (reported event); conditions: dulaglutide 1.5 mg once weekly, N = 54
Procedure: as §1, §2

[6] = second line, analysis set not given (not LOCF)

Substance: dulaglutide [reference compound]
- Mean change from baseline, fasting glucose [1]: −34.9
- Mean glucose value (fasting) [1]: 140.5 mg/dL
- % of Patients Achieving Weight loss ≥10% ([2]; LOCF): 9.3%
- odds ratio vs. placebo, Weight loss ≥10% ([2]; LOCF): 11.7
- % of Patients Achieving Weight loss ≥10% [2, 6]: 10.6%
- % of Patients Achieving Weight loss ≥15% [2, 6]: 2.1%
- odds ratio vs. placebo, Weight loss ≥10% [2, 6]: 10.4
- Nausea Vomiting and Diarrhea: % patients who experienced new event during interval ([3]; Fol Up (follow up)): 5.9%
- Nausea Vomiting and Diarrhea: m, number of patients who experienced new event during interval ([3]; Fol Up (follow up)): 3
- Nausea Vomiting and Diarrhea: % patients who experienced new event during interval ([3]; T/Wk 0): 22.2%
- Nausea Vomiting and Diarrhea: m, number of patients who experienced new event during interval ([3]; T/Wk 0): 12
- Nausea Vomiting and Diarrhea: % patients who experienced new event during interval ([3]; T/Wk 1): 3.7%
- Nausea Vomiting and Diarrhea: m, number of patients who experienced new event during interval ([3]; T/Wk 1): 2
- Nausea Vomiting and Diarrhea: % patients who experienced new event during interval ([3]; T/Wk 2): 0.0%
- Nausea Vomiting and Diarrhea: m, number of patients who experienced new event during interval ([3]; T/Wk 2): 0
- Nausea Vomiting and Diarrhea: % patients who experienced new event during interval ([3]; T/Wk 3): 3.8%
- Nausea Vomiting and Diarrhea: m, number of patients who experienced new event during interval ([3]; T/Wk 3): 2
- Nausea Vomiting and Diarrhea: % patients who experienced new event during interval ([3]; T/Wk 4): 1.9%
- Nausea Vomiting and Diarrhea: m, number of patients who experienced new event during interval ([3]; T/Wk 4): 1
- Nausea Vomiting and Diarrhea: % patients who experienced new event during interval ([3]; T/Wk 5): 0.0%
- Nausea Vomiting and Diarrhea: m, number of patients who experienced new event during interval ([3]; T/Wk 5): 0
- Nausea Vomiting and Diarrhea: % patients who experienced new event during interval ([3]; T/Wk 6): 0.0%
- Nausea Vomiting and Diarrhea: m, number of patients who experienced new event during interval ([3]; T/Wk 6): 0
- Nausea Vomiting and Diarrhea: % patients who experienced new event during interval ([3]; T/Wk 7): 1.9%
- Nausea Vomiting and Diarrhea: m, number of patients who experienced new event during interval ([3]; T/Wk 7): 1
- Nausea Vomiting and Diarrhea: % patients who experienced new event during interval ([3]; T/Wk 8): 0.0%
- Nausea Vomiting and Diarrhea: m, number of patients who experienced new event during interval ([3]; T/Wk 8): 0
- Nausea Vomiting and Diarrhea: % patients who experienced new event during interval ([3]; T/Wk 9): 1.9%
- Nausea Vomiting and Diarrhea: m, number of patients who experienced new event during interval ([3]; T/Wk 9): 1
- Nausea Vomiting and Diarrhea: % patients who experienced new event during interval ([3]; T/Wk 10): 0.0%
- Nausea Vomiting and Diarrhea: m, number of patients who experienced new event during interval ([3]; T/Wk 10): 0
- Nausea Vomiting and Diarrhea: % patients who experienced new event during interval ([3]; T/Wk 11): 0.0%
- Nausea Vomiting and Diarrhea: m, number of patients who experienced new event during interval ([3]; T/Wk 11): 0
- Nausea Vomiting and Diarrhea: % patients who experienced new event during interval ([3]; T/Wk 12): 2.0%
- Nausea Vomiting and Diarrhea: m, number of patients who experienced new event during interval ([3]; T/Wk 12): 1
- Nausea Vomiting and Diarrhea: % patients who experienced new event during interval ([3]; T/Wk >12 < 16): 3.9%
- Nausea Vomiting and Diarrhea: m, number of patients who experienced new event during interval ([3]; T/Wk >12 < 16): 2
- Nausea Vomiting and Diarrhea: % patients who experienced new event during interval ([3]; T/Wk >16 ≤ 20): 2.0%
- Nausea Vomiting and Diarrhea: m, number of patients who experienced new event during interval ([3]; T/Wk >16 ≤ 20): 1
- Nausea Vomiting and Diarrhea: % patients who experienced new event during interval ([3]; T/Wk >20): 7.8%
- Nausea Vomiting and Diarrhea: m, number of patients who experienced new event during interval ([3]; T/Wk >20): 4
- % of Patients Reaching HbA1c Target <5.7% ([4]; LOCF Week 26 (N = 54)): 1.9%
- % of Patients Reaching HbA1c Target <6% ([4]; LOCF Week 26 (N = 54)): 11.1%
- odds ratio vs. placebo, Patients Reaching HbA1c Target <5.7% ([4]; LOCF Week 26 (N = 54)): 1.0
- odds ratio vs. placebo, Patients Reaching HbA1c Target <6% ([4]; LOCF Week 26 (N = 54)): 4.5
- % of Patients Reaching HbA1c Target <5.7% ([4]; mITT Week 26 (N = 47)): 2.1%
- % of Patients Reaching HbA1c Target <6% ([4]; mITT Week 26 (N = 47)): 12.8%
- odds ratio vs. placebo, Patients Reaching HbA1c Target <5.7% ([4]; mITT Week 26 (N = 47)): 0.89
- odds ratio vs. placebo, Patients Reaching HbA1c Target <6% ([4]; mITT Week 26 (N = 47)): 4.5
- Decrease Appetite (reported): n, number of patients with events [5]: n = 3;
- Decrease Appetite (reported): percent of patients in treatment group experiencing the event [5]: 5.6%
